Assay: yeast display, Sf9 membrane polyspecificity reagent, FACS + sequencing; frameworks hold sequencing errors
In short: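 Using colony PCR, genes from sorted yeast display clones were amplified, then sequenced on MiSeq at 2 × 250 and filtered by CDR length. The clones had been stained with 10% biotinylated, detergent-solubilized Sf9 membrane reagent for 1 hour at 4 °C and sorted by FACS into low and high (top ~1%) gates on anti-HA and streptavidin fluorescence. Polyreactivity labels come from the gate of origin.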

Sequence	polyreactivity (PSR sort gate)
QVQLVESGGGLVQAGGSLRLSCAASGFIFGRYTMGWYRQAPGKERELVAAITYSGNTYYADSVKGRFTISRDNAKNTVYLQMNSLKPEDTAVYYCNAYGANFRAFRNAYKYWGQGTQVTVSS	high polyreactivity
QVQLVESGGGLVQAGGSLRLSCAASGFIFGSNAMGWYRQAPGKERELVAAISSRGGRTYYADSVKGRFTISRDNAKNTVYLQMNSLKPEDTAVYYCATVRYRALRYDYWGQGTQVTVSS	high polyreactivity
QVQLVESGGGLVQAGGSLRLSCAASGFIFGSYAMGWYRQAPGKERELVAAINWSGGSTYYADSVKGRFTISRDNAKNTVYLQMNSLKPDDTAVYYCAADRTYYSFLYYPWVDFDYWGQGTQVTVSS	high polyreactivity
QVQLVESGGGLVQAGGSLRLSCAASGFIFGTNAMGWYRQAPGKERELVASISSTGGSTYYADSVKGRFTISRDNAKNTVYLQMNSLKPEDTAVYYFSADPYPEYIRYLPGVDYWGQGTQVTVSS	low polyreactivity
QVQLVESGGGLVQAGGSLRLSCAASGFIFGTNTMGWYRQAPGKERELVAAITSVGSTNYADSVKGRFTISRDNAKNTVYLQMNSLKPEDTAVYYCPATLYYQYGGDYWGQGTQVTVSS	low polyreactivity
QVQLVESGGGLVQAGGSLRLSCAASGFIFGTYAMGWYRQAPGKERELVAAISQSGGRTYYADSVKGRFTISRDNAKNTVYLQMISLKPEDTAVYYCAARHRPTGISTGYDYWGQGTQVTVSS	high polyreactivity
QVQLVESGGGLVQAGGSLRLSCAASGFIFGTYAMGWYRQAPGKERELVAAISVGGGSTYYADSVKGRFTISRDTAKNTVYLQMNSLKPEDTAVYYCAAVQLYQKHQITYVAHEYWGQGTQVTVSS	low polyreactivity
QVQLVESGGGLVQAGGSLRLSCAASGFIFGTYVMGWYRQAPGKERELVAAISESGGRTYYADSVKGRFTISRDNAKNTVYLQMNSLKPEDTADYYCAKLRHIRFHYYYGYQSYYYWVQGTQVTVSS	high polyreactivity
QVQLVESGGGLVQAGGSLRLSCAASGFIFGVNAMGWYRQARGKERELVAAISTSGGSTYYADSVKGRFTISRDNAKNTVYLQMNSLKPEDTAVYYCAALLHRWAYGTYGYVYWGQGSQVTVSS	high polyreactivity
QVQLVESGGGLVQAGGSLRLSCAASGFIFGVYAMGWYRKATGKERELVAAITTRAGTNYADSVKGRFTISRDNAKNTVYLQMNSLKPEDPAVYYCNAVGWYLLPYDYWGQGTQVTVSS	low polyreactivity
QVQLVESGGGLVQAGGSLRLSCAASGFIFGWNAMGWYRQAPGKEREFVAAITSSGTSTYYADSVKGRFTISRDNAKNTVYLQMNSLKPEDTAVYYCATEGWPFYPARDYDYWGQGTQVTVSS	low polyreactivity
QVQLVESGGGLVQAGGSLRLSCAASGFIFGYNAMGWDRQAPGKERELVAAITRSGGRTYYADSVKGRFTISRDNAKNTVSLQMNSLKPEDTAVYYCAASRFATYPRWYDYWGQGTQVTVSS	low polyreactivity
QVQLVESGGGLVQAGGSLRLSCAASGFIFGYNAMGWYRQAPGKERELVAAISTRGGSTYYADSVKGRFTISRDNAKNTVYLQMNSLKPEDTAVYYCNKVTRVPFDSWGQCTQVTVSS	high polyreactivity
QVQLVESGGGLVQAGGSLRLSCAASGFIFGYNAMGWYRQSPGKERELVAAISTRGGSTYYADSVKGRFTISRDNAKNTVYLQMNSLKPEDTAVYYCNKVTRVPFDSWGQGTQVTVSS	high polyreactivity
QVQLVESGGGLVQAGGSLRLSCAASGFIFGYNDMGWYRQAPGKERELVAAINSGGSTYYADSVKGRFTISRDNAKNTVYLQMNSLKPEDTAVYYCAADYGYFEYDYWGQGTQVTVSS	low polyreactivity
QVQLVESGGGLVQAGGSLRLSCAASGFIFGYNVMGWYIQAPGKERELVASISTGGRTYYADSVKGRFTISRDNAKNTVYLQMYSLKPEDTAVYYCAARYRSYSYLYYSWGQGTQVTVSS	high polyreactivity

Sequence	polyreactivity (PSR sort gate)
QVQLVESGGGLVQAGGSLRLSCAASGFIFGYYAMGGYRQAPGKERELVAAISSSGTRTYYADSVKGRFTISRDNAKNTVYLQMNSLKPEDTAVYYCAVTTAYSGAFYTGEYWGQGTQVTVSS	high polyreactivity
QVQLVESGGGLVQAGGSLRLSCAASGFIFGYYAMGWYRKAPGKERELVAAITSGDGSTYADSVKGRFTISRDNEKNTVYLQMNSLKPEDTAVYYCAAVFRYYTYSGAVRYYYWGQGTQVTVSS	high polyreactivity
QVQLVESGGGLVQAGGSLRLSCAASGFIFGYYAMGWYRQAPGKERDLVAAITSGTGTNYADSVKGRFTISRDNAKISVYLQMIRLKPEDTAVYYCAAYYTWLSEFGYWGQGTQVTVSS	low polyreactivity
QVQLVESGGGLVQAGGSLRLSCAASGFIFGYYAMGWYRQAPGKERELVAAISWSGVSTYYADSVKARFTISRDNAKNTVSLQMNSLKREDTAVYYCAFGYVLTGVFQARFDYWGQGTQVTVSS	high polyreactivity
QVQLVESGGGLVQAGGSLRLSCAASGFIFHEYAMGWSRQAPGKERELVAAISSGGGSTYYADSVKGRFTISRDNANNTVYLQMNSLKPEDTAVYYCAADATAYSVLTRDYWGQGTQVTVSS	high polyreactivity
QVQLVESGGGLVQAGGSLRLSCAASGFIFHTNTMGWYRQAPGKERELVAAISSGGRTNYADSVKGRFTISRDNAKNTVYLQMNSLKPEDTAVYYCAARVGSGFDSWGQGTQVTVSS	high polyreactivity
QVQLVESGGGLVQAGGSLRLSCAASGFIFHYYAMGWYRQAPGKERELVAAISKTGGSTYYADSVKGRFTISRDNAKNTVYLQMNSLKPEDTAVYYCAVARSAYYRGNHWGQGTQVTVSS	high polyreactivity
QVQLVESGGGLVQAGGSLRLSCAASGFIFIAYTMGWYRQAPGKERELVAAISSRGGRTYYADSVKGRFTISRDNAKNTVYLQMNSLKPEDTAVYYCAASYTYYSFGFGTDVRYGYWGQGTQVTVSS	high polyreactivity
QVQLVESGGGLVQAGGSLRLSCAASGFIFIRYAMGWYRQAPGKERELVAAISASGVRTYYADSVKGRFTISRDNAKNTVYLQMNSLKPEDTAVYDCAVRSAWVYGIGRYYWGQGTQVTVSS	high polyreactivity
QVQLVESGGGLVQAGGSLRLSCAASGFIFIYNAMGWYRQAPGKERELVASITSGGGSTYYADSVKGRFTISRDNAKNTVYLQMNSLKPEDTAVYYCAKQDAVQGAEASGEYDYWGQGTQVTVSS	low polyreactivity
QVQLVESGGGLVQAGGSLRLSCAASGFIFKFYAMGWYRQAPGKETELVAAISKSGGRTYYADSVKGRFTISRDNAKNSVYLQMNSLKPEDTAVYYCNAPSVGAAFDYWGQGTQVTVSS	high polyreactivity
QVQLVESGGGLVQAGGSLRLSCAASGFIFKHYAMGWYRPAPGKERELVAAITRSGGRTYYADSVKGRFTISRDYAKNTVYLQMNSLKPEDTAVYYCNVDGKKRHYRHYYLSAYDYWGQGTQVTVSS	high polyreactivity
QVQLVESGGGLVQAGGSLRLSCAASGFIFKIYAMGWYRQAPGKERELVAAISSGDNTNYADSVKGRFTISRDNAKNTVYLQMNSLKPEDNAVYYCAALRYTYLGQLQWSRSGRYDYWGQGTQVTVSS	high polyreactivity
QVQLVESGGGLVQAGGSLRLSCAASGFIFKLYAMGWYRQAPGKERELVAAIRSSGGSTYYADSVKGRFTISRDNAKNTVYLQMNSLKPEDTAVYYCAKVGGRVRYNYWGQGTQVTVSS	high polyreactivity
QVQLVESGGGLVQAGGSLRLSCAASGFIFKRYAMGWYRQAPGKERELVATISNSGGRTYYADSVKGRFTISRDNAKNTVYLQINSLKPEDTAVYYCDALPFWWGGYWGQGTQVTVSS	high polyreactivity
